In article PMC3765157 (PLoS ONE, 2013):

Target: the molecule itself
Test: AUC

B1: PrP-like ectodomain of mouse ZIP5 (Mm_ZIP5, residues 20-207), secreted from mammalian cells, deglycosylated (domain or fragment)
chain: WVGGSVPNLGPAEQEQNHYLAQLFGLYGENGTLTAGGLARLLHSLGLGRVQGLRLGHHEPPTGRAAPTSGDNFTHRLQEPELSVDIWAGMPLGPSGWGDQEESKAPDLHGSGPSSLDLFQRLLLLDHSLADHLNEDCLNGSQLLVNFGLSPVAPLTPRQFALLSPALLYQIDSRVCIKTPAPAPPGDV
notes: also called ZIP5 ectodomain; PrP-like ZIP5 ectodomain
  stoichiometry N: ~2
